Assay results reported in patent US20230168258A1 (UNIVERSIDAD DE MURCIA, published 2023).

Assays:
Assay in all cases: dot-blot
human oxytocin = target: T1, human oxytocin (human, UniProt P01178 20-28)
T1 construct: only the oxytocin nonapeptide is meant; The form spotted in the dot-blot is not described; also called oxytocin of human
T1 peptide (looked up): CYIQNCPLG

horse oxytocin = target: T2, horse oxytocin (horse, UniProt P01176 1-9)
T2 construct: The form spotted in the dot-blot is not described; also called oxytocin of horse
T2 peptide (looked up): CYIQNCPLG

pig oxytocin = target: T3, pig oxytocin (pig, UniProt P01177 20-28)
T3 construct: only the oxytocin nonapeptide is meant; The form spotted in the dot-blot is not described; also called oxytocin of pig
T3 peptide (looked up): CYIQNCPLG

Measured: binding result

B1: monoclonal antibody P26C (antibody, V domains shown)
VH: QIQLVQSGPELKKPGETVKISCKASGYIFTNYGMNWVKQAPGKNLKWMGWINTNTGEPTYAEEFKGRFAFSLETSASIAYLKINNLKNEDTATYFCSRGGLLPLSYWGQGTLVTVSA
VL: DVVMTQTPLSLPVSLGDQASISCRSSQSLVHSNGNTYLHWFLQKPGQSPKLLIYKVSNRFSGVPDRFSGSGSGTDFTLKISRVEAEDLGVYFCSQSTHFPWTFGGGTKLEIK
notes: Mouse (BALB/c) hybridoma antibody; the isotype is stated as IgGk; It was tested as hybridoma supernatant in the ELISA; also called clone P26C; monoclonal antibody of the invention
binds: all assays above
